# From patent US20190298769A1
# Molecular target: 4-1BB receptor on Jurkat cells that over express 4-1BB/NFκB/Luc (UniProt Q07011)
# Test: cell-based or functional assay
# UniProt Q07011, sequence (Q07011 24-255 limits assumed): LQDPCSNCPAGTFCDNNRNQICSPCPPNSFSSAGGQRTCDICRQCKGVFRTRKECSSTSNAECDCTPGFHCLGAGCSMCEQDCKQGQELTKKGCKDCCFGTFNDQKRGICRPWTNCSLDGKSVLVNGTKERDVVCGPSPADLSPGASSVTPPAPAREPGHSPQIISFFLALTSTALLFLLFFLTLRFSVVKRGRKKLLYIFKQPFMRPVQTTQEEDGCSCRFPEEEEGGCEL
substance,measurement,value
4-1BBL construct (human extracellular 4-1BBL - 4-1BBL linker - GPA) on the surface of engineered erythroid cells (ligand),NFκB activation (luciferase activity of Jurkat cells that over express 4-1BB/NFκB/Luc),80 to 100 fold
same,NFκB activation relative to the agonistic 4-1BB monoclonal antibody,15 fold
